US8242083B2, “Kinase substrates” (PerkinElmer Health Sciences, Inc., priority 2008, dated 2012)

Assays:
Type in all cases: biochemical
ALK = ALK (Homo sapiens, UniProt Q9UM73); assay: TR-FRET kinase assay, ALK; conditions: Kinase Concentration 4 nM; 50 nM ULight-labeled substrate, 200 micromolar ATP, 2 hours
Procedure: (§1) TR-FRET kinase assays are performed under standardized conditions: various individual kinases are incubated with 50 nM of kinase substrate BRB1 labeled with the TR-FRET acceptor dye ULight (PerkinElmer) and 200 micromolar ATP in 10 μL of kinase assay buffer (50 mM HEPES pH7.5, 10 mM MgCl2, 3 mM MnCl2, 1 mM EGTA, 2 mM DTT and 0.01% Tween-20) for 2 hours at room temperature. Reactions are stopped with EDTA, and anti-phospho-tyrosine antibodies (clone PT66) labeled with the TR-FRET europium chelate donor dye are added to a final concentration of 2 nM in a final volume of 20 μL. The TR-FRET signal emitted at 665 nm is read one hour after the addition of antibodies using a TR-FRET plate reader such as the Envision® Multilabel Plate reader (PerkinElmer). The emitted signal at 665 nm is proportional to the extent of peptide phosphorylation, Control reactions indicative of background are performed excluding ATP from the reaction.
(§2) Assay conditions are identical to those used described for FIG. 1.

EphA2 = EphA2 (Homo sapiens, UniProt P29317); assay: TR-FRET kinase assay, EphA2; conditions: Kinase Concentration 0.25 nM; 50 nM ULight-labeled substrate, 200 micromolar ATP, 2 hours
Procedure: as §1, §2

PYK2 = PYK2 (Homo sapiens, UniProt Q14289); assay: TR-FRET kinase assay, PYK2; conditions: Kinase Concentration 0.25 nM; 50 nM ULight-labeled substrate, 200 micromolar ATP, 2 hours
Chain of PYK2 (Q14289 whole entry, species assumed): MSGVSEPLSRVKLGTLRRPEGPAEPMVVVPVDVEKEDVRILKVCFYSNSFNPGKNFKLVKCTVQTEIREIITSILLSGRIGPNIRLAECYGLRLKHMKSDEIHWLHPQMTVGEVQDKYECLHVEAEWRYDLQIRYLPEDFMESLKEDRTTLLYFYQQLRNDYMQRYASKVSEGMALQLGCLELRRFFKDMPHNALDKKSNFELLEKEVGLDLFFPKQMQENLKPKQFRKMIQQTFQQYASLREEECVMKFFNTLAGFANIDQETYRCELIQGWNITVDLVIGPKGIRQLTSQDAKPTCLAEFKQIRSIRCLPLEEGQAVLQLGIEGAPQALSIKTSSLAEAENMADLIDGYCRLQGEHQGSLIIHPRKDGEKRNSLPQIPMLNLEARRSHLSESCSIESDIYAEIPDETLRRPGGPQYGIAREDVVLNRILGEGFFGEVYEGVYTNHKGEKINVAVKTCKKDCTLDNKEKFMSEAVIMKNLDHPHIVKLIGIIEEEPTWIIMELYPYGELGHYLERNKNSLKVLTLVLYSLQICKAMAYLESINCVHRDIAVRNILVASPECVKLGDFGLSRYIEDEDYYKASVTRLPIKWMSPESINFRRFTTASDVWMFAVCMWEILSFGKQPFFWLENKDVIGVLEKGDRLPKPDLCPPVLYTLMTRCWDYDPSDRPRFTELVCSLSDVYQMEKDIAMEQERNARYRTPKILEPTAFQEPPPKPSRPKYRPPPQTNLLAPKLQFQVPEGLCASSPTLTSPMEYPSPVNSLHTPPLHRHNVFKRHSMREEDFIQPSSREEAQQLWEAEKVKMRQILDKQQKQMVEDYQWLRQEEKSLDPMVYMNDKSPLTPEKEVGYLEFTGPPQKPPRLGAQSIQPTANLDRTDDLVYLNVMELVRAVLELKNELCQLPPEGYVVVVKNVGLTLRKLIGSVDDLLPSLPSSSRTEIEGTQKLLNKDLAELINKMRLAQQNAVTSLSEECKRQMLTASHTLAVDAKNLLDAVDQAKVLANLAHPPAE
Procedure: as §1, §2

SYK = SYK (Homo sapiens, UniProt P43405); assay: TR-FRET kinase assay, SYK; conditions: Kinase Concentration 0.5 nM; 50 nM ULight-labeled substrate, 200 micromolar ATP, 2 hours
Procedure: as §1, §2

DGFR [T790M] = DGFR [T790M] (Homo sapiens, UniProt P00533, T790M); assay: TR-FRET kinase assay, DGFR [T790M]; conditions: Kinase Concentration 0.5 nM; 50 nM ULight-labeled substrate, 200 micromolar ATP, 2 hours
Procedure: as §1, §2

HCK = HCK (Homo sapiens, UniProt P08631); assay: TR-FRET kinase assay, HCK; conditions: Kinase Concentration 0.25 nM; 50 nM ULight-labeled substrate, 200 micromolar ATP, 2 hours
Chain of HCK (P08631 whole entry, species assumed): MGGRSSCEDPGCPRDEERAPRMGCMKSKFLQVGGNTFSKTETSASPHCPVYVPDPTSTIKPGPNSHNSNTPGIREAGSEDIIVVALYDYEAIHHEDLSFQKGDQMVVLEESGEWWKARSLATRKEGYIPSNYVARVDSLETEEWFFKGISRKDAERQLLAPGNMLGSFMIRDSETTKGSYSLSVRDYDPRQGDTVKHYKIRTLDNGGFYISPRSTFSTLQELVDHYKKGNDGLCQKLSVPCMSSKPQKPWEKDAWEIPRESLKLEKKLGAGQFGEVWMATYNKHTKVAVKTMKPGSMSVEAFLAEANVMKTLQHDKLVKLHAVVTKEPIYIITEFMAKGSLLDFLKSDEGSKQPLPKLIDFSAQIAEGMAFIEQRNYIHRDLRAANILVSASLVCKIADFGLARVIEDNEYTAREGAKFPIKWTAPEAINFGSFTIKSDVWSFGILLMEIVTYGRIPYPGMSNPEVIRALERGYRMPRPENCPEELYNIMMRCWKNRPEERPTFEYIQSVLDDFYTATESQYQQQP
Procedure: as §1, §2

TEC = molecular target: T1, TEC (Homo sapiens, UniProt P42680); assay: TR-FRET kinase assay, TEC; conditions: Kinase Concentration 0.5 nM; 50 nM ULight-labeled substrate, 200 micromolar ATP, 2 hours
T1 sequence (P42680 1-631): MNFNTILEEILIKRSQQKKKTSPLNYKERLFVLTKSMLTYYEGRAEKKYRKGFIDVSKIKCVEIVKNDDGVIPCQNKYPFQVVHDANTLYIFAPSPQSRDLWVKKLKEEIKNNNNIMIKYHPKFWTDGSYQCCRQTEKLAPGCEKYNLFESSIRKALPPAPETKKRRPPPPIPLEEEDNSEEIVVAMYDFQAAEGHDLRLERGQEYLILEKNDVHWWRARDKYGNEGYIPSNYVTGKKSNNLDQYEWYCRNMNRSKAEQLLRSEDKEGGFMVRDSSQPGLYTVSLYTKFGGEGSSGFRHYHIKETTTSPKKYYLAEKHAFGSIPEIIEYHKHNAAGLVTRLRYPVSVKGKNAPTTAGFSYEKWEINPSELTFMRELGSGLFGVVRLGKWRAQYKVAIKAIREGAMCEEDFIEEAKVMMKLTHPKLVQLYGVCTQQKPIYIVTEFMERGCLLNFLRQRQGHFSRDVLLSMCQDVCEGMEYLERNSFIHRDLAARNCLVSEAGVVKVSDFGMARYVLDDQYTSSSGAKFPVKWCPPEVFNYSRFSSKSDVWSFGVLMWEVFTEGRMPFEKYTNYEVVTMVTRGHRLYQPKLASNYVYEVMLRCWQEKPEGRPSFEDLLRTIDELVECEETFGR
Procedure: as §1, §2

EphA4 = EphA4 (Homo sapiens, UniProt P54764); assay: TR-FRET kinase assay, EphA4; conditions: Kinase Concentration 0.5 nM; 50 nM ULight-labeled substrate, 200 micromolar ATP, 2 hours
Chain of EphA4 (P54764 20-986, species assumed): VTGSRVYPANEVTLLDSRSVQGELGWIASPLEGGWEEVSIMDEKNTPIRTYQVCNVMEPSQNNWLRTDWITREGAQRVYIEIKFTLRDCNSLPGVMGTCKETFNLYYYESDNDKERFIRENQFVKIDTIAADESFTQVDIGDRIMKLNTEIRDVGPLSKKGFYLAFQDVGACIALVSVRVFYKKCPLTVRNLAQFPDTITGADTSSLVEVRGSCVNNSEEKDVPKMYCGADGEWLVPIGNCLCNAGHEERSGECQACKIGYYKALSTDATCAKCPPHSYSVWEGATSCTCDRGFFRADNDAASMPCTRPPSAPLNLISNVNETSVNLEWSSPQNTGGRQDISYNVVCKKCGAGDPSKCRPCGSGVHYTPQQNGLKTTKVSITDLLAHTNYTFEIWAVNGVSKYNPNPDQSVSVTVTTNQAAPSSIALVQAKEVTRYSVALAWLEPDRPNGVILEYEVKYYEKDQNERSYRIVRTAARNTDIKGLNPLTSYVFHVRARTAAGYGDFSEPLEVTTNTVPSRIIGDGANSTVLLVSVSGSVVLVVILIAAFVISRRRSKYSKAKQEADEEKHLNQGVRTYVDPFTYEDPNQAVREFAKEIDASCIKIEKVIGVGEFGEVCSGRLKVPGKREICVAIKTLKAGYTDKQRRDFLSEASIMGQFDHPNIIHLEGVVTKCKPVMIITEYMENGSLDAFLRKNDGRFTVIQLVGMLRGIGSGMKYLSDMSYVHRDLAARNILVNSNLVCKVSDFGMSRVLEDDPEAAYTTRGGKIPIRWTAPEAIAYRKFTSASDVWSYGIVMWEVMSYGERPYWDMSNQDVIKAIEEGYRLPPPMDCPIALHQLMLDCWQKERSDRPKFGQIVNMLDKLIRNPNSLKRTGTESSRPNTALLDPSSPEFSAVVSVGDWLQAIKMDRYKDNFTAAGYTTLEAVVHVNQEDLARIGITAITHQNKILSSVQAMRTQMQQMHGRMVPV
Procedure: as §1, §2

JAK3 = molecular target: T2, JAK3 (Homo sapiens, UniProt P52333); assay: TR-FRET kinase assay, JAK3; conditions: Kinase Concentration 0.5 nM; 50 nM ULight-labeled substrate, 200 micromolar ATP, 2 hours
T2 sequence (P52333 1-1124): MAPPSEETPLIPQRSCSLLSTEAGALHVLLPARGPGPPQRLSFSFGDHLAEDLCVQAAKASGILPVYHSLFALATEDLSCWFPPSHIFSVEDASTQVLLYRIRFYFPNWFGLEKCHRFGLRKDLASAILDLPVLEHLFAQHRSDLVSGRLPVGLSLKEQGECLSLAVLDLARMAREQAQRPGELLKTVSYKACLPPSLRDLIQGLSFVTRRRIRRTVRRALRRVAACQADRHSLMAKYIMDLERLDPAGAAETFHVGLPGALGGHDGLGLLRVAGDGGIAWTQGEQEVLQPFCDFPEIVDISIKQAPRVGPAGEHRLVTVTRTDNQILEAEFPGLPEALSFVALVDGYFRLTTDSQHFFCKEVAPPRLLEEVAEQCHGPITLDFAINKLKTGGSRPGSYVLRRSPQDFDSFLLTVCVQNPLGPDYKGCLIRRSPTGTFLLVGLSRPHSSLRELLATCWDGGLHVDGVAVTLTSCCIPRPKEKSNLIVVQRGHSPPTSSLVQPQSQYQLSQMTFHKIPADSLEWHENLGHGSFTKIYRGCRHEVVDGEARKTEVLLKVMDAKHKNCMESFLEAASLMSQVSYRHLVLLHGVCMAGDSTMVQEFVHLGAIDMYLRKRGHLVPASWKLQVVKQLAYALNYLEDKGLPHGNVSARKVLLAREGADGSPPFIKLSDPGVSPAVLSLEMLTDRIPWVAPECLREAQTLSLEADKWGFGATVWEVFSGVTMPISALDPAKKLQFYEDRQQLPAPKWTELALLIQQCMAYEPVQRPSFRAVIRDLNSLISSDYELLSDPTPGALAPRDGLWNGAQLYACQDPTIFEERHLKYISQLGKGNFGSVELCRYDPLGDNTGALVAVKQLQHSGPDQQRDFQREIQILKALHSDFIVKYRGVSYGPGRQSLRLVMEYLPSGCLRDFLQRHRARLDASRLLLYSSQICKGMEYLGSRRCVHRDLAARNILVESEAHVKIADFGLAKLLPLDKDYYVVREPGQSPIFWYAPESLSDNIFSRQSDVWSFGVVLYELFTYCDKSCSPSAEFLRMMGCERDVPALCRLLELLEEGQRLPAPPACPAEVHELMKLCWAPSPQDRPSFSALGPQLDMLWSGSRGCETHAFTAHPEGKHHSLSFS
Procedure: as §1, §2

YES = YES (Homo sapiens, UniProt P07947); assay: TR-FRET kinase assay, YES; conditions: Kinase Concentration 0.25 nM; 50 nM ULight-labeled substrate, 200 micromolar ATP, 2 hours
Chain of YES (P07947 whole entry, species assumed): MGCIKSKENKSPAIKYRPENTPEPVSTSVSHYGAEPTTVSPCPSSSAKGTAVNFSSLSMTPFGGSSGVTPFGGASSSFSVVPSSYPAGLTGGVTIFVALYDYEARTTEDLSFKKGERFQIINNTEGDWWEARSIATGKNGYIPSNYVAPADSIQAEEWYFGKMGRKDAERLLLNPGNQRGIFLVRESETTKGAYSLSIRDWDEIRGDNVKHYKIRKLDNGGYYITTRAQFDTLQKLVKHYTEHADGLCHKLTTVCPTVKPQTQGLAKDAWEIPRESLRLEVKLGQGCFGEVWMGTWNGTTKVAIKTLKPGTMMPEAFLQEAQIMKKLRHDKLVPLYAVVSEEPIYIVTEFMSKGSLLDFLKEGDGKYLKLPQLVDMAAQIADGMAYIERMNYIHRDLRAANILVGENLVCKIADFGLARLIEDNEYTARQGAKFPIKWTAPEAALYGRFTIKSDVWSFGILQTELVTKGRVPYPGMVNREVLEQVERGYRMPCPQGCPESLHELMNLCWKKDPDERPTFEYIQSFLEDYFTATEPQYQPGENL
Procedure: as §1, §2

Chain of ALK (Q9UM73 19-1620, species assumed): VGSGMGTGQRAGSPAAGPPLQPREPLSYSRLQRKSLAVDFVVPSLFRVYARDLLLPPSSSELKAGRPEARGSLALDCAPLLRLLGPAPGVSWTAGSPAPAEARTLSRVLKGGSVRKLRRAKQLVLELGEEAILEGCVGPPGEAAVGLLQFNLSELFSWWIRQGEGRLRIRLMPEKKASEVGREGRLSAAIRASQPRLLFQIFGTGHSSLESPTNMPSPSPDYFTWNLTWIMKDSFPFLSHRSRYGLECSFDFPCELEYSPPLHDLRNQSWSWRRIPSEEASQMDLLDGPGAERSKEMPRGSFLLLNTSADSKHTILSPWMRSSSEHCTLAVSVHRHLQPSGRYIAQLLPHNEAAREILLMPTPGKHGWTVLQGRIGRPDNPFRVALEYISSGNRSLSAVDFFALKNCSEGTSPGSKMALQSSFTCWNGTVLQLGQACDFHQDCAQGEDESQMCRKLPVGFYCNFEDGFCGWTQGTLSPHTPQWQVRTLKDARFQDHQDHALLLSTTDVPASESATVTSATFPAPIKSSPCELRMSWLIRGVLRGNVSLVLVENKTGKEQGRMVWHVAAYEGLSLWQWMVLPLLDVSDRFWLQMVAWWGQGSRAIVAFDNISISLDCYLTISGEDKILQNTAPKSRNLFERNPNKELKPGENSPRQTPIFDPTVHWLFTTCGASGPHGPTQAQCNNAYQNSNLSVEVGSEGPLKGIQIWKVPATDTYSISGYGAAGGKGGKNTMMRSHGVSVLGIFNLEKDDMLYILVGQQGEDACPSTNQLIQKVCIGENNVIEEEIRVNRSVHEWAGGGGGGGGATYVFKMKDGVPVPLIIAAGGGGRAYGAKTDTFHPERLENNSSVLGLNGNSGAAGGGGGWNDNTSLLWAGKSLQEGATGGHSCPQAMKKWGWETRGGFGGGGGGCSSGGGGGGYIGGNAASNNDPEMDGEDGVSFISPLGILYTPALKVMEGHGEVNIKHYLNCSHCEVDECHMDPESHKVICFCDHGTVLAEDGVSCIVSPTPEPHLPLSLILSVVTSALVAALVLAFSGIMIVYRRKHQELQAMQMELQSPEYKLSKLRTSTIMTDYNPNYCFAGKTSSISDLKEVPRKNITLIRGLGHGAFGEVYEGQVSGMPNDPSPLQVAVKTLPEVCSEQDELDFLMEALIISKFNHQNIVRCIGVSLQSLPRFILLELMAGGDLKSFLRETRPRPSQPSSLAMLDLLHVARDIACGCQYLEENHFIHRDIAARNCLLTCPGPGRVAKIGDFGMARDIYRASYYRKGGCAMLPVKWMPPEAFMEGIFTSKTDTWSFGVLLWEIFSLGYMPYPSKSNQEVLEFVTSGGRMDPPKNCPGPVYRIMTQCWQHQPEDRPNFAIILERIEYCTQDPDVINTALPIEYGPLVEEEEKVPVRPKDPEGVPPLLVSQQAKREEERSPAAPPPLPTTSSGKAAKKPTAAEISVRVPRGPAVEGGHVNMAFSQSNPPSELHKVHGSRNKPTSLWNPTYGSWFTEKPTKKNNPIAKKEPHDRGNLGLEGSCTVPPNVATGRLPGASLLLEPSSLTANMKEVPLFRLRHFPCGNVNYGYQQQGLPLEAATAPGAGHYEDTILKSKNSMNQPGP

C AYE AYE AYE K EYA EYA EYA K AYA EYE R (CAYEAYEAYEKEYAEYAEYAKAYAEYER; tyrosine kinase substrate peptide) [BRB1]
Signal to Noise ratio with BRB1 Peptide (ALK): 8.8
Signal to Noise ratio with BRB1 Peptide (EphA2): 26.9
Signal to Noise ratio with BRB1 Peptide (PYK2): 2.9
Signal to Noise ratio with BRB1 Peptide (SYK): 24.6
Signal to Noise ratio with BRB1 Peptide (DGFR [T790M]): 3.3
Signal to Noise ratio with BRB1 Peptide (HCK): 29.7
Signal to Noise ratio with BRB1 Peptide (TEC): 18.6
Signal to Noise ratio with BRB1 Peptide (EphA4): 31.5
Signal to Noise ratio with BRB1 Peptide (JAK3): 16.1
Signal to Noise ratio with BRB1 Peptide (YES): 28.0
